Results as given in article PMC7585203.

Biological target: FAM-LIG1(118–130)K126me2 peptide (human)
Experiment: fluorescence polarisation; FAM-labelled peptide with GST-tagged domains or MBP-tagged full-length UHRF1; as described in ref. 4, plotted as change in anisotropy

- ratio of its dissociation constant to that of the UHRF1 TTD: 70 fold
Substance: GST-tagged chromodomain Y-like protein isoform 2 (CDYL1b) chromodomain (domain or fragment)
